Assay results taken from PMC6802964.

Experiments:
[1] = molecular target: T1, CyPet–Myo1^IQ12–YPet FRET reporter protein (S. pombe); test: other fluorescence titration; change of the CyPet-YPet FRET signal of the IQ-FRET protein (1 µM by the methods, 0.5 µM by the legend) with varying concentrations of Cam1 or Cam2; 140 mM KCl, 20 mM MOPS pH 7.0, with or without 2 mM MgCl2, 2 mM EGTA (absence of calcium)
T1 sequence (Q9Y7Z8 whole entry, looked up): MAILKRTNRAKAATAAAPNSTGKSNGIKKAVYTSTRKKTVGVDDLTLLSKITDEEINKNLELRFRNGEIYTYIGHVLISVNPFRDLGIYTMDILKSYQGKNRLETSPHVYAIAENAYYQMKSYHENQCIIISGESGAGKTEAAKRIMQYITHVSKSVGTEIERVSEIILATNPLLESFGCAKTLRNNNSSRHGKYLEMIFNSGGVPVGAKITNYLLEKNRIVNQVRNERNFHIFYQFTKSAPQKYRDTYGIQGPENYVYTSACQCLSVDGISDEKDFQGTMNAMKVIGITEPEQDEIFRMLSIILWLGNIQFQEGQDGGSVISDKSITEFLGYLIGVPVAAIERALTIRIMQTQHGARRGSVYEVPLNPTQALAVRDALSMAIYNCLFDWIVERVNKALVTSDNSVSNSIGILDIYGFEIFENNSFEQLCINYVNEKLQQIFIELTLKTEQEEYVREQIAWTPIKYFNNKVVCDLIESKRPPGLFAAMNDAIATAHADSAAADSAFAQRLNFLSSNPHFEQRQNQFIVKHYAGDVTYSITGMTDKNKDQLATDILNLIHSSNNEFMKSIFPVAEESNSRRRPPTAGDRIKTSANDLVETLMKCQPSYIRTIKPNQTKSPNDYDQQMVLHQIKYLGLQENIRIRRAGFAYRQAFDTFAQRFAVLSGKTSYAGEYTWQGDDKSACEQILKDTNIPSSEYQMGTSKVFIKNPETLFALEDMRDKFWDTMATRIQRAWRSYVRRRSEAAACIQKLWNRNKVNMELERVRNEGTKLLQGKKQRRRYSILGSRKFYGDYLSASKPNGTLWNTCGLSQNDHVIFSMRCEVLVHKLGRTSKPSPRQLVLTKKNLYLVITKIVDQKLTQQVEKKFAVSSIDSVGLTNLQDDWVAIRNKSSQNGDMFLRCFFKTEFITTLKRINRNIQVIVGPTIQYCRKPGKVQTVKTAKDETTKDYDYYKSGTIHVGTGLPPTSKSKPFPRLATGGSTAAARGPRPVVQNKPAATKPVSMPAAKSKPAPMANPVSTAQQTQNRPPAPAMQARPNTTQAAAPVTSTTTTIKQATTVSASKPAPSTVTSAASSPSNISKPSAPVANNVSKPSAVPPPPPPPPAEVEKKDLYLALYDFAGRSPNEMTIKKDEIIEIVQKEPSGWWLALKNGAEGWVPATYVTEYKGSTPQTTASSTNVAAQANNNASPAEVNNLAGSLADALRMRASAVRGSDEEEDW

[2] = molecular target: T2, CyPet–Myo1^IQ1–YPet FRET reporter protein (S. pombe); test: as above
T2 sequence (Q9Y7Z8 whole entry, looked up): T1 sequence (Q9Y7Z8 whole entry, looked up)

KD of the first binding event [1]: < 0.1 µM | KD of the second binding event [1]: 0.68 µM | Kd [2]: < 100 nM
Substance: Cam1 (wild type, amino-terminally acetylated fission yeast calmodulin) (from UniProt P05933 1-150) (natural protein)
